Source: patent publication US20250269047A1 (MABWELL SHANGHAI BIOSCIENCE, published 2025)

What was measured:
[1] = target: T1, recombinant mouse B7-H3-his protein (Cat.: CM83, Beijing Yiqiao Shenzhou Science and Technology Co., Ltd.) (mouse, UniProt Q8VE98 29-244, limits assumed); test: ELISA, plate coated with 1 µg/ml recombinant mouse B7-H3-his, HRP-anti-human Fc
T1 construct: Bought reagent; not shown: his tag
T1 sequence (looked up): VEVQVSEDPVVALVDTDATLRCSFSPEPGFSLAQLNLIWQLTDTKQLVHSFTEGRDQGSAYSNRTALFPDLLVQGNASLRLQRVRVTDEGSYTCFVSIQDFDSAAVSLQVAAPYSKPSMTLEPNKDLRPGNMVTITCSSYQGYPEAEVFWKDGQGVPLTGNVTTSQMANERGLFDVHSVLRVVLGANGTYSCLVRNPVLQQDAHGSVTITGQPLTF
Procedure: Plates were coated with recombinant human B7-H3-his extracellular domain protein (Accession No.: UniProtKB-Q5ZPR3, 1 aa-461 aa), recombinant cynomolgus B7-H3-his protein (Cat.: 90806-C08H, Beijing Yiqiao Shenzhou Science and Technology Co., Ltd.) and recombinant mouse B7-H3-his protein (Cat.: CM83, Beijing Yiqiao Shenzhou Science and Technology Co., Ltd.) respectively overnight at 4° C., each protein having a coating concentration of 1 μg/ml. Washed with PBS 3 times, the plates were blocked with the added 5% BSA PBS at 37° C. for 60 min, and then washed 3 times with PBST. […] After incubation at 37° C. for 10 min, 2 M HCl was added to stop the reaction; and absorbances at 450 nm and at 630 nm (as reference wavelength) were read, and A450 nm-630 nm values of the wells in the plates were recorded.

[2] = target: T2, recombinant cynomolgus B7-H3-his protein (Cat.: 90806-C08H, Beijing Yiqiao Shenzhou Science and Technology … (cynomolgus)); test: ELISA, coated antigen 1 µg/ml
T2 construct: Bought reagent; also called recombinant monkey B7-H3
Procedure: (§1) Plates were coated with recombinant human B7-H3-his extracellular domain protein (Accession No.: UniProtKB-Q5ZPR3, 1 aa-461 aa), recombinant cynomolgus B7-H3-his protein (Cat.: 90806-C08H, Beijing Yiqiao Shenzhou Science and Technology Co., Ltd.) and recombinant mouse B7-H3-his protein (Cat.: CM83, Beijing Yiqiao Shenzhou Science and Technology Co., Ltd.) respectively overnight at 4° C., each protein having a coating concentration of 1 μg/ml. Washed with PBS 3 times, the plates were blocked with the added 5% BSA PBS at 37° C. for 60 min, and then washed 3 times with PBST. Different dilutions of hz10B4 (diluted in a 3-fold gradient from a starting concentration of 10 μg/ml, 12 concentrations in total), hz17A3 (diluted in a 3-fold gradient from a starting concentration of 3 μg/ml, 12 concentrations in total), hz9B11 (diluted in a 3-fold gradient from a starting concentration of 10 μg/ml, 12 concentrations in total), Enoblituzumab (diluted in a 3-fold gradient from a starting concentration of 10 μg/ml, 12 concentrations in total), and MGC-018 (diluted in a 3-fold gradient from a starting concentration of 10 μg/ml, 12 concentrations in total) were added into the plates. The plates were incubated at 37° C. for 60 min, and then were washed 4 times with PBST. 1:5000 diluted HRP-anti-human Fc (Cat.: 109-035-098, Jackson Immuno Research) was added into the plates for incubation at 37° C. for 30 min. Afterwards, the plates were washed with PBST 4 times, and TMB substrate was added for color development. After incubation at 37° C. for 10 min, 2 M HCl was added to stop the reaction; and absorbances at 450 nm and at 630 nm (as reference wavelength) were read, and A450 nm-630 nm values of the wells in the plates were recorded.

[3] = target: T3, recombinant human B7-H3-his extracellular domain protein (UniProtKB-Q5ZPR3, 1 aa-461 aa) (human, UniProt Q5ZPR3 29-461); test: ELISA, coated antigen 1 µg/ml
T3 construct: range 1-461; The printed range 1-461 starts at residue 1 and so includes the signal peptide; also called Human B7-H3 ECD; recombinant human B7-H3-his protein; not shown: C-terminal his tag
T3 sequence (looked up): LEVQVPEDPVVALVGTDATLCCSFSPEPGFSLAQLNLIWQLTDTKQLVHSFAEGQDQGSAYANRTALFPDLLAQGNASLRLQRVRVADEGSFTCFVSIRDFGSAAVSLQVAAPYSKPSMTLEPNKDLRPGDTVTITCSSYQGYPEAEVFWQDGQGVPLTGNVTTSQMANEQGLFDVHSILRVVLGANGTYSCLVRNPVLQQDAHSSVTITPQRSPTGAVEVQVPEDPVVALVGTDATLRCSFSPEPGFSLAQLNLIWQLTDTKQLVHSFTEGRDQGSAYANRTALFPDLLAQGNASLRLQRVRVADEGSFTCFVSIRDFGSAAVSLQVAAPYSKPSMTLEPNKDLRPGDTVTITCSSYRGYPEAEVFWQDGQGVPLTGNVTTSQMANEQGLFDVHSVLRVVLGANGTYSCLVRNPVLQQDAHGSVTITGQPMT
Procedure: as §1

[4] = target: T3, recombinant human B7-H3-his …; test: BLI (Octet QKe), antibody on AHC biosensor, B7-H3-his in solution
Procedure: Affinities of the antibodies were determined by an assay including capturing Fc fragments of the antibodies with anti-human IgG Fc capture (AHC) biosensors using Octet QKe system instrument from Fortebio. For the assay, each of the antibodies (hz10B4, hz17A3, and hz9B11 as well as control antibodies MGC-018 and Enoblituzumab) was diluted to 4 μg/ml in PBS, and was allowed to flow through the surface of an AHC biosensor (Cat.: 18-0015, PALL) for 120 s. Recombinant human B7-H3-his extracellular domain protein (Accession No.: UniProtKB-Q5ZPR3, 1 aa-461 aa) was used as a mobile phase. The association time was 300 s and the dissociation time was 300 s. When the assay was finished, data from which the response values of blank control had been deducted were fitted to a 1:1 Langmuir binding model using software, and then kinetic constants for antigen-antibody binding were calculated.
The reaction curves of hz10B4, hz17A3, hz9B11 and control antibodies MGC-018, Enoblituzumab with recombinant human B7-H3 protein are shown in FIG. 8.

binding result [1]: no binding
EC50 [2]: 78.2 pM
EC50 [3]: 117 pM
Kd [4]: 597 pM
koff [4]: 0.000517 s⁻¹
kon [4]: 865000 M⁻¹ s⁻¹
B1: MGC-018 (antibody, human IgG1, kappa, V domains shown)
VH: EVQLVESGGGLVKPGGSLRLSCAASGFTFSSYGMSWVRQAPGKGLEWVATINSGGSNTYYPDSLKGRFTISRDNAKNSLYLQMNSLRAEDTAVYYCARHDGGAMDYWGQGTTVTVSS
VL: DIQMTQSPSSLSASVGDRVTITCRASESIYSYLAWYQQKPGKAPKLLVYNTKTLPEGVPSRFSGSGSGTDFTLTISSLQPEDFATYYCQHHYGTPPWTFGQGTRLEIKR
notes: naked antibody expressed in HEK293 by the applicants; also called control antibody MGC-018
